Blank lines part the entries; values can stand above or below the binder they belong to.
Assays:
Conditions in all cases: both partners purified
[1] = molecular target: T1, HRP-2_(469–549) (human, UniProt Q7Z4V5 469-549, 15N-labeled); assay: NMR titration; 20 µM 15N-labeled IBD (HRP-2 469–549 or LEDGF/p75 345–426) mixed with various concentrations of unlabeled synthetic MLL peptide (123–160); 15N/1H HSQC (SOFAST), 25 °C; KD from chemical shift perturbations
T1 construct: also called HRP-2-IBD; HRP-2 IBD; source: E. coli Rosetta2 (DE3), purified
T1 sequence (looked up): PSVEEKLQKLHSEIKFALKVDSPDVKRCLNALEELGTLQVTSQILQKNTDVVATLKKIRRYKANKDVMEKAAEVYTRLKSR

[2] = molecular target: T2, LEDGF/p75_(345–426) (human, UniProt O75475 345-426, 15N-labeled); assay: as above
T2 construct: also called LEDGF/p75-IBD; LEDGF/p75 IBD; source: E. coli Rosetta2 (DE3), purified
T2 sequence (looked up): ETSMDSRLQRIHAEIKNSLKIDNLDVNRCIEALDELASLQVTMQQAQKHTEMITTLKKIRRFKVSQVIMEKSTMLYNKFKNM

[3] = molecular target: T3, Full length flag-tagged LEDGF/p75 (human, UniProt O75475 1-530); assay: AlphaScreen or HTRF; out-competition: Flag-LEDGF/p75 (0.3 nM) preincubated with MLL_(1–160)–GST (10 nM) before titration of MBP-LEDGF/p75_(325–530), MBP-HRP-2_(470–552) or MBP alone
T3 construct: LEDGF/p75, full length; also called Flag-LEDGF/p75; flag-LEDGF/p75; source: E. coli Rosetta2 (DE3), purified

[4] = molecular target: T4, MBP-LEDGF/p75_(325–530) (human, UniProt O75475 325-530); assay: as above
T4 construct: LEDGF/p75 C-terminal fragment, residues 325-530; also called LEDGF_(325–530); MBP-fused C-terminal fragment of LEDGF/p75; source: E. coli Rosetta2 (DE3), purified
T4 sequence (looked up): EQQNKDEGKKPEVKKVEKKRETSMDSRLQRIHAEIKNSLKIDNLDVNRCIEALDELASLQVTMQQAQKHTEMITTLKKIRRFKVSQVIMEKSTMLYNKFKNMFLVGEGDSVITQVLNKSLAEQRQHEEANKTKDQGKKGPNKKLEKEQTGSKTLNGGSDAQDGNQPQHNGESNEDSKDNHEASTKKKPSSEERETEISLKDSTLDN

Kd [1]: 54.4 ± 2.2 µM
binding result [2]: binds
B1: synthetic MLL peptide (123–160) (peptide, UniProt Q03164 123-160, looked up)
peptide: GTNLRRFRAVFGESGGGGGSGEDEQFLGFGSDEEVRVR
notes: also called MLL-derived peptide; source: synthetic peptide

binding result [3]: binds
binding result [4]: binds
B2: MLL_(1–160)–GST (domain or fragment, UniProt Q03164 1-160, looked up)
chain: MAHSCRWRFPARPGTTGGGGGGGRRGLGGAPRQRVPALLLPPGPPVGGGGPGAPPSPPAVAAAAAAAGSSGAGVPGGAAAASAASSSSASSSSSSSSSASSGPALLRVGPGFDAALQVSAAIGTNLRRFRAVFGESGGGGGSGEDEQFLGFGSDEEVRVR
notes: MLL (MLL1, KMT2A) N-terminal fragment, residues 1-160; The printed name MLL_(1–160)–GST hints at a C-terminal GST; also called GST-tagged MLL_(1–160); GST-tagged N-terminal fragment of MLL; source: E. coli Rosetta2 (DE3), purified

From article PMC7835958, “Unlike its Paralog LEDGF/p75, HRP-2 Is Dispensable for MLL-R Leukemogenesis but Important for Leukemic Cell Survival” (Cells, 2021)
